Reference: article PMC7297996, “Alzheimer’s disease-related dysregulation of mRNA translation causes key pathological features with ageing” (Translational Psychiatry, 2020)

Molecular target: the molecule itself
Test: native gel or EMSA; NativePAGE (Invitrogen) of the synthetic Aβ1-42 preparation, detected with antibody 4G8; guanidine hydrochloride (1:1) used to break down oligomers

B1: synthetic rat Aβ1-42 peptide (peptide, UniProt P08592 672-713, looked up)
peptide: DAEFGHDSGFEVRHQKLVFFAEDVGSNKGAIIGLMVGGVVIA
notes: amyloid-beta 1-42, cut product of the amyloid precursor protein (APP), rat; Oligomer preparation: 100 uM stock in 200 mM HEPES pH 8.5, agitated for 30 min at room temperature; also called amyloid-β 1-42; rodent Aβ_(1-42); source: synthetic peptide; bought: Calbiochem
B1: binds.
